Data published in publication PMC4811774.

Assays:
[1] = molecular target: TOC translocons in TOC75ΔP1#2 chloroplasts (Arabidopsis thaliana | Arabidopsis thaliana (endogenous in chloroplasts)) (UniProt Q9STE8); assay: saturation binding to isolated chloroplasts; apparent; increasing amounts of urea-denatured preSSU-FLAG-HIS with 10^7 isolated chloroplasts, 0.1 mM ATP and GTP, 26°C, 5 min (early import intermediate); chloroplasts reisolated through Percoll, anti-FLAG immunoblot, non-linear regression
[2] = molecular target: TOC translocons in TOC75 chloroplasts (Arabidopsis thaliana | Arabidopsis thaliana (endogenous in chloroplasts)) (UniProt Q9STE8); assay: as above
[3] = molecular target: Toc75 POTRA-His (protein fragment encompassing all three Toc75 POTRA domains and a C-terminal hexahistidine tag) (Arabidopsis thaliana) (UniProt Q9STE8); assay: pull-down; solid phase binding: increasing amounts of POTRA-His immobilised on Ni-NTA resin, incubated with in vitro translated 35S-labelled proteins in HMK buffer (50 mM Hepes-KOH pH 7.5, 2 mM MgCl2, 40 mM KOAc) with 10 mM imidazole and 0.1% Triton X-100, 30 min, 23°C; phosphorimaging
[4] = molecular target: TOC translocons in TOC75ΔP1-2#2 chloroplasts (Arabidopsis thaliana | Arabidopsis thaliana (endogenous in chloroplasts)) (UniProt Q9STE8); assay: other; apparent Kd, isolated chloroplasts, 0.1 mM ATP and GTP; settings: natural protein

Question: Which results are given for “preSSU-FLAG-HIS (from UniProt P10795 55-180) (natural protein)”?
Answer: Kd [1]: 188 nM; Kd [2]: 159 nM

Question: For “[35S]preSSU (from UniProt P10795 1-180) (natural protein)”, which maximum binding, percent of added radiolabeled protein [3] is on record?
Answer: Its maximum binding, percent of added radiolabeled protein is 77%.

Question: Which Kd [4] does the source give for “preSSU-FLAG-HIS (from UniProt P10795 55-180)” here?
Answer: Its Kd is 126 nM.
